Reference: patent US20260242478A1 (published 2026)
Where no end group is shown, it is not given here.

B1: Phage-1115 (Peptide-87 library clone, SEQ ID NO: 1431) (peptide)
peptide: YCDGHAPQYMAKCI
notes: Tested as clonal phage supernatant; not shown: pIII coat protein of the bacteriophage to which the peptide is fused
B2: Phage-1113 (Peptide-87 library clone, SEQ ID NO: 1429) (peptide)
peptide: YCEGHSAVYMSKCL
notes: as for B1
B3: Phage-1112 (Peptide-87 library clone, SEQ ID NO: 1428) (peptide)
peptide: YCDGHSAEYIAKCL
notes: as for B1
B4: Phage-1114 (Peptide-87 library clone, SEQ ID NO: 1430) (peptide)
peptide: YCEGHSLEYMMKCV
notes: as for B1
B5: Phage-1117 (peptide)
peptide: YCAGHMPIYMTKCL
notes: Peptide-87 library clone, tested as clonal phage (peptide fused to pIII of the bacteriophage)
B6: Phage-1124 (peptide)
peptide: YCEGHSSQWMWKCL
notes: as for B5
B7: Phage-1126 (peptide)
peptide: YCEGHSTEYMAKCL
notes: as for B5
B8: Phage-1129 (peptide)
peptide: YCDGHLPVYMTKCL
notes: as for B5
B9: Phage-1127 (peptide)
peptide: YCEGHQPAYMEKCL
notes: as for B5
B10: Phage-1125 (peptide)
peptide: YCEGHFPLYMNKCL
notes: as for B5
B11: Phage-1119 (peptide)
peptide: YCEGHLVQYMQKCL
notes: as for B5
B12: Phage-1120 (peptide)
peptide: YCMGHLPIYMEKCL
notes: as for B5
B13: Phage-1128 (peptide)
peptide: YCDGHAEEYRMKCL
notes: as for B5
B14: Phage-1122 (peptide)
peptide: YCDGHLEVYMDKCL
notes: as for B5
B15: Phage-1121 (peptide)
peptide: YCEGHLPRYMLKCL
notes: as for B5
B16: Phage-1116 (peptide)
peptide: YCQGHSVEHMAKCL
notes: as for B5
B17: Phage-1123 (peptide)
peptide: YCDGHSPAYLQKCL
notes: as for B5
B18: Phage-1118 (peptide)
peptide: YCDGHRAEYMLKCL
notes: as for B5
B19: Phage-1275 (peptide)
peptide: YCAGHIGEYMDKCL
modifications: cysteine pairing not given here; also: fused to phage pIII protein, pIII and linker sequence not given here
notes: Peptide-87 library clone on clonal phage (crude supernatant); not shown: fused to the pIII filament protein of the bacteriophage
B20: Phage-1279 (peptide)
peptide: YCAGHSVQYMYKCL
modifications: cysteine pairing not given here; also: fused to phage pIII protein, pIII and linker sequence not given here
notes: as for B19
B21: Phage-1285 (peptide)
peptide: YCDGHHLEYIDKCL
modifications: cysteine pairing not given here; also: fused to phage pIII protein, pIII and linker sequence not given here
notes: as for B19
B22: Phage-1278 (peptide)
peptide: YCEGHAQQYMLKCL
modifications: cysteine pairing not given here; also: fused to phage pIII protein, pIII and linker sequence not given here
notes: as for B19
B23: Phage-1281 (peptide)
peptide: YCAGHMPQYMSKCL
modifications: cysteine pairing not given here; also: fused to phage pIII protein, pIII and linker sequence not given here
notes: as for B19
B24: Phage-1274 (peptide)
peptide: YCDGHTGVYKWKCI
modifications: cysteine pairing not given here; also: fused to phage pIII protein, pIII and linker sequence not given here
notes: as for B19
B25: Phage-1283 (peptide)
peptide: YCAGHLPQYVSKCL
modifications: cysteine pairing not given here; also: fused to phage pIII protein, pIII and linker sequence not given here
notes: as for B19
B26: Phage-1273 (peptide)
peptide: YCEGHSSEYMVKCL
modifications: cysteine pairing not given here; also: displayed on phage by fusion to pIII, linker and pIII sequence not given here
notes: as for B19
B27: Phage-1286 (peptide)
peptide: YCDGHLPRFMVKCL
modifications: cysteine pairing not given here; also: fused to phage pIII protein, pIII and linker sequence not given here
notes: as for B19
B28: Phage-1284 (peptide)
peptide: YCEGHLPWYMSKCL
modifications: cysteine pairing not given here; also: fused to phage pIII protein, pIII and linker sequence not given here
notes: as for B19
B29: Phage-1276 (peptide)
peptide: YCDGHAGIYVLKCL
modifications: cysteine pairing not given here; also: fused to phage pIII protein, pIII and linker sequence not given here
notes: as for B19
B30: Phage-1282 (peptide)
peptide: YCQGHALQYLQKCL
modifications: cysteine pairing not given here; also: fused to phage pIII protein, pIII and linker sequence not given here
notes: as for B19
B31: Phage-1277 (peptide)
peptide: YCDGHNPVYLAKCL
modifications: cysteine pairing not given here; also: fused to phage pIII protein, pIII and linker sequence not given here
notes: as for B19
B32: Phage-1280 (peptide)
peptide: YCEGHFGMYMSKCL
modifications: cysteine pairing not given here; also: fused to phage pIII protein, pIII and linker sequence not given here
notes: as for B19

These binders were tested against Anti-CD28 Fab (SEQ ID NOs: 696, 697) (assay: phage binding ELISA; Fab-coated wells pre-incubated with CD28 antigen as competitor, anti-M13 HRP detection;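 also: crude clonal phage supernatants added without washing after the CD28 pre-incubation, with wells given blocking buffer only (no CD28) as the reference, bound phage read after washing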).
Target sequence in this assay (VH, as listed by the source, chain 1 of 2): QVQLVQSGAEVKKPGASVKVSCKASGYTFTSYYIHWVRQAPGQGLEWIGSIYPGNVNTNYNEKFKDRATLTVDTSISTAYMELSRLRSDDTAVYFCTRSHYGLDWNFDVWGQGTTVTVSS
Target sequence in this assay (VL, as listed by the source, chain 2 of 2): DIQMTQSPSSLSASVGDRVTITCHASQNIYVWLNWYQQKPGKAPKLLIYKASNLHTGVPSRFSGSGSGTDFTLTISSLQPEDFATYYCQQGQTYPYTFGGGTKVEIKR
Procedure: (§1) Clonal phage were harvested as crude supematants and screened via standard ELISAs. […] Prior to the addition of clonal phage, wells were incubated with blocking buffer and CD28 antigen or blocking buffer alone. Without washing or aspirating, clonal phage supematants were then added to the wells and incubated for a short time. Wells were then washed followed by detection of bound phage using a horse radish conjugated anti-M13 antibody. Clonal phage of interest were then sent for sequence analysis.

Binder | Anti-CD28 Fab signal in the presence of CD28
TCSAGATYAWPFCL [Phage-1360 peptide (Peptide-92 library sequence, SEQ ID NO: 1656)] | 0.06

Each binder was assayed against T1, Anti-CD28 Fab (SEQ ID NOs: 696, 697) (assay: phage ELISA; biotinylated anti-CD28 Fab on neutravidin plate, clonal phage supernatant, anti-M13 HRP detection;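 also: crude supernatants of single phage clones picked after panning were screened for binding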).
T1 construct: In the phage ELISA the Fab was biotinylated and captured on neutravidin coated plates
T1 sequence (VH, as listed by the source, chain 1 of 2): as the sequence (VH, as listed by the source, chain 1 of 2) above
T1 sequence (VL, as listed by the source, chain 2 of 2): as the sequence (VL, as listed by the source, chain 2 of 2) above

Binder | Anti-CD28 Fab signal (phage binding ELISA)
B1 | 1.3
B2 | 1.31
B3 | 1.31
B4 | 1.3

What follows are binders tested against T1, Anti-CD28 Fab (SEQ ID NOs: 696, 697) (assay: phage ELISA; captured anti-CD28 Fab pre-incubated with CD28 antigen as competitor, anti-M13 HRP detection;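 also: crude clonal phage supernatants screened by ELISA, with wells pre-incubated with CD28 antigen in blocking buffer, compared against wells given blocking buffer alone as control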).
Procedure: (§2) After panning, phage infected bacteria were plated out and colonies picked into 96 well blocks. Clonal phage was then amplified and separated from bacterial cells via centrifugation.
as §1

Binder | Anti-CD28 Fab signal in the presence of CD28 (phage binding ELISA)
B1 | 0.06
B2 | 0.06
B3 | 0.05
B4 | 0.07

These binders were tested against Anti-CD28 Fab (SEQ ID NOs: 696, 697) (assay: phage ELISA, clonal phage supernatant on biotinylated anti-CD28 Fab captured on neutravidin plates).
Target sequence in this assay (VH, as listed by the source, chain 1 of 2): as the sequence (VH, as listed by the source, chain 1 of 2) above
Target sequence in this assay (VL, as listed by the source, chain 2 of 2): as the sequence (VL, as listed by the source, chain 2 of 2) above
Procedure: as §2, §1

Binder | Anti-CD28 Fab signal (phage binding ELISA)
B5 | 1.3
B6 | 1.27
B7 | 1.27
B8 | 1.27
B9 | 1.27
B10 | 1.27
B11 | 1.28
B12 | 1.28
B13 | 1.27
B14 | 1.28
B15 | 1.28
B16 | 1.3
B17 | 1.28
B18 | 1.29

These binders were tested against Anti-CD28 Fab (SEQ ID NOs: 696, 697) (assay: phage ELISA on captured anti-CD28 Fab, wells pre-incubated with CD28 antigen as competitor;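 also: crude clonal phage supernatants added without washing, bound phage read out by HRP-coupled anti-M13 antibody, reference wells given blocking buffer only instead of CD28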).
Target sequence in this assay (VH, as listed by the source, chain 1 of 2): as the sequence (VH, as listed by the source, chain 1 of 2) above
Target sequence in this assay (VL, as listed by the source, chain 2 of 2): as the sequence (VL, as listed by the source, chain 2 of 2) above
Procedure: as §2, §1

Binder | Anti-CD28 Fab signal in the presence of CD28 (phage binding ELISA)
B5 | 0.08
B6 | 0.09
B7 | 0.06
B8 | 0.07
B9 | 0.06
B10 | 0.08
B11 | 0.06
B12 | 0.05
B13 | 0.08
B14 | 0.07
B15 | 0.3
B16 | 0.06
B17 | 0.06
B18 | 0.08

The binders below were run against Anti-CD28 Fab (SEQ ID NOs: 696, 697) (assay: phage binding ELISA; biotinylated anti-CD28 Fab on neutravidin plate, clonal phage supernatant, anti-M13 HRP detection;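 also: wells pretreated with blocking buffer, either plus or minus CD28 antigen, then given crude phage supernatant briefly without washing in between, then washed before anti-M13 HRP readout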).
Target sequence in this assay (VH, as listed by the source, chain 1 of 2): as the sequence (VH, as listed by the source, chain 1 of 2) above
Target sequence in this assay (VL, as listed by the source, chain 2 of 2): as the sequence (VL, as listed by the source, chain 2 of 2) above
Procedure: Clonal phage were harvested as crude supematants and screened via standard ELISAs. […] Prior to the addition of clonal phage, wells were incubated with blocking buffer and CD28 antigen or blocking buffer alone. Without washing or aspirating, clonal phage supematants were then added to the wells and incubated for a short time. Wells were then washed followed by detection of bound phage using a horse radish conjugated anti-M13 antibody.

Binder | Anti-CD28 Fab (SEQ ID NOs: 696, 697) signal
TCSAGATYAWPFCL [Phage-1360 peptide (Peptide-92 library sequence, SEQ ID NO: 1656)] | 2.31

Each binder was assayed against T2, Anti-CD28 Fab (SEQ ID NOs: 696, 697) (assay: phage ELISA; Fab on plate pre-incubated with CD28 antigen as competitor, anti-M13 HRP detection).
T2 construct: Used biotinylated and captured on neutravidin coated plates in the phage ELISA
T2 sequence (VH, as listed by the source, chain 1 of 2): as the sequence (VH, as listed by the source, chain 1 of 2) above
T2 sequence (VL, as listed by the source, chain 2 of 2): as the sequence (VL, as listed by the source, chain 2 of 2) above
Procedure: as §2, §1

Binder | Phage binding ELISA, Anti-CD28 Fab signal in the presence of CD28
B19 | 0.58
B20 | 0.06
B21 | 0.06
B22 | 0.05
B23 | 0.05
B24 | 0.06
B25 | 0.06
B26 | 0.06
B27 | 0.07
B28 | 0.09
B29 | 0.08
B30 | 0.08
B31 | 0.08
B32 | 0.07

Each binder was assayed against T2, Anti-CD28 Fab (SEQ ID NOs: 696, 697) (assay: phage ELISA; biotinylated Fab on neutravidin plate, clonal phage supernatant, anti-M13 HRP detection).
Procedure: as §2, §1

Binder | Phage binding ELISA, Anti-CD28 Fab (SEQ ID NOs: 696, 697) signal
B19 | 0.75
B20 | 0.74
B21 | 0.69
B22 | 0.74
B23 | 0.72
B24 | 0.76
B25 | 0.7
B26 | 0.77
B27 | 0.69
B28 | 0.69
B29 | 0.75
B30 | 0.71
B31 | 0.74
B32 | 0.73
